# Results reported in the supplement of paper PMC9233669.
# This sample holds only a part of the variants without activity.
# Assays:
# [1] = system: biotinyl-Ile-oxazolone; test: self-aminoacylation, catalytic enhancement (BIO) (fold over background); higher = more active; k-Seq, kA / k0A0; sequences stand for … in GGGAAUGGAUCCACAUCUACGAAUUC…UUCACUGCAGACUUGACGAAGCUG
# Outline: (§1)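 Each biotinyl-aminoacyl-oxazolone, at 2–1250 μM, was incubated with mutagenized RNA pools (0.43 μM) carrying a 21-nt variable region. The 50 μL reactions contained HEPES/NaCl/KCl/MgCl2/CaCl2 buffer with 5% acetonitrile at pH 6.9–7.0 and ran for 90 minutes at room temperature. After streptavidin capture, RNA was measured by qPCR in triplicate and by Illumina sequencing, and catalytic enhancement was calculated as median kA over the uncatalyzed rate from a pseudo-first-order fit of per-sequence fraction reacted.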
# [2] = system: biotinyl-Leu-oxazolone; test: self-aminoacylation, catalytic enhancement (BLO) (fold over background); higher = more active; k-Seq, kA / k0A0; sequences stand for … in GGGAAUGGAUCCACAUCUACGAAUUC…UUCACUGCAGACUUGACGAAGCUG
# Outline: as §1
# [3] = system: biotinyl-Trp-oxazolone; test: self-aminoacylation, catalytic enhancement (BWO) (fold over background); higher = more active; k-Seq, kA / k0A0; sequences stand for … in GGGAAUGGAUCCACAUCUACGAAUUC…UUCACUGCAGACUUGACGAAGCUG
# Outline: as §1
# [4] = system: biotinyl-Met-oxazolone; test: self-aminoacylation, catalytic enhancement (BMO) (fold over background); higher = more active; k-Seq, kA / k0A0; sequences stand for … in GGGAAUGGAUCCACAUCUACGAAUUC…UUCACUGCAGACUUGACGAAGCUG
# Outline: as §1
# [5] = system: biotinyl-Phe-oxazolone; test: self-aminoacylation, catalytic enhancement (BFO) (fold over background); higher = more active; k-Seq, kA / k0A0; sequences stand for … in GGGAAUGGAUCCACAUCUACGAAUUC…UUCACUGCAGACUUGACGAAGCUG
# Outline: as §1
# [6] = system: biotinyl-Val-oxazolone; test: self-aminoacylation, catalytic enhancement (BVO) (fold over background); higher = more active; k-Seq, kA / k0A0; sequences stand for … in GGGAAUGGAUCCACAUCUACGAAUUC…UUCACUGCAGACUUGACGAAGCUG
# Outline: as §1
sequence,measurement,setting,value
AAAUUCGCUAAUAGUCGCAAG [Fam3.1 aminoacylation ribozyme variant],self-aminoacylation,[1],2.89
same,self-aminoacylation,[2],2.19
same,self-aminoacylation,[3],2.09
same,self-aminoacylation,[4],2.31
same,self-aminoacylation,[5],2.65
AACUUAGCUAAUAGUCGCAAG [Fam3.1 aminoacylation ribozyme variant],self-aminoacylation,[1],2.2
same,self-aminoacylation,[2],3.27
same,self-aminoacylation,[4],2.42
same,self-aminoacylation,[5],2.75
AACUUUGCUAACAGUCGCAAG [Fam3.1 aminoacylation ribozyme variant],self-aminoacylation,[1],2.17
same,self-aminoacylation,[2],3.43
same,self-aminoacylation,[3],2.08
same,self-aminoacylation,[4],2.15
same,self-aminoacylation,[5],2.06
AACUUUGCUAAUAGUCGCAAC [Fam3.1 aminoacylation ribozyme variant],self-aminoacylation,[1],2.22
same,self-aminoacylation,[2],2.16
same,self-aminoacylation,[3],2.59
same,self-aminoacylation,[5],4.1
AACUUUGCUAAUAGUCGCAAG [Fam3.1 aminoacylation ribozyme variant],self-aminoacylation,[1],2.22
same,self-aminoacylation,[2],2.46
same,self-aminoacylation,[3],2.41
same,self-aminoacylation,[4],2.2
same,self-aminoacylation,[5],3.71
AAGUUGGCUAAAAGUCGCAAG [Fam3.1 aminoacylation ribozyme variant],self-aminoacylation,[1],2.01
same,self-aminoacylation,[5],3.1
AAGUUUCCUAAUAGUCGCAGG [Fam3.1 aminoacylation ribozyme variant],self-aminoacylation,[1],2.09
same,self-aminoacylation,[2],2.06
same,self-aminoacylation,[4],2.16
same,self-aminoacylation,[5],11.8
AAGUUUGCUAAUAUUCGCGAG [Fam3.1 aminoacylation ribozyme variant],self-aminoacylation,[1],2.04
same,self-aminoacylation,[3],3.31
same,self-aminoacylation,[4],2.02
same,self-aminoacylation,[5],16.5
AAGUUUUCUAACAGUCGCAAG [Fam3.1 aminoacylation ribozyme variant],self-aminoacylation,[1],2.04
same,self-aminoacylation,[5],3.07
AUACACCUAGGUCAUCGGGCG [Fam2.2 aminoacylation ribozyme variant],self-aminoacylation,[6],2.18
same,self-aminoacylation,[2],2.58
same,self-aminoacylation,[3],2.86
same,self-aminoacylation,[4],2.8
same,self-aminoacylation,[5],11
AUCACCCUGGUCAUCAAGUGA [Fam2.1 aminoacylation ribozyme variant],self-aminoacylation,[6],2.1
same,self-aminoacylation,[2],3.46
same,self-aminoacylation,[3],4.8
same,self-aminoacylation,[4],3.75
same,self-aminoacylation,[5],14.2
AUUACCCUGGUACUCGAGUGA [Fam2.1 aminoacylation ribozyme variant],self-aminoacylation,[2],2.66
same,self-aminoacylation,[3],3.35
same,self-aminoacylation,[4],2.66
same,self-aminoacylation,[5],10.3
AUUACCCUGGUCAUCGAGAAA [Fam2.1 aminoacylation ribozyme variant],self-aminoacylation,[2],2.97
same,self-aminoacylation,[3],2.58
same,self-aminoacylation,[4],2.8
same,self-aminoacylation,[5],5.05
AUUACCCUGGUCCUGGAGUGA [Fam2.1 aminoacylation ribozyme variant],self-aminoacylation,[1],2.07
same,self-aminoacylation,[2],2.79
same,self-aminoacylation,[3],3.33
same,self-aminoacylation,[4],3.13
same,self-aminoacylation,[5],10.7
AUUACCCUGGUCGUGGAGUGA [Fam2.1 aminoacylation ribozyme variant],self-aminoacylation,[2],2.42
same,self-aminoacylation,[3],2.5
same,self-aminoacylation,[4],2.19
same,self-aminoacylation,[5],12.3
AUUACCCUGGUGAGCGAGUGA [Fam2.1 aminoacylation ribozyme variant],self-aminoacylation,[1],2.4
same,self-aminoacylation,[2],3.8
same,self-aminoacylation,[3],3.97
same,self-aminoacylation,[4],3.94
same,self-aminoacylation,[5],22.2
AUUACCGUGCUCAUCGAGUGA [Fam2.1 aminoacylation ribozyme variant],self-aminoacylation,[2],2.64
same,self-aminoacylation,[3],3.33
same,self-aminoacylation,[4],2.12
same,self-aminoacylation,[5],2.01
AUUACGCUGGUCAUCAAGUGA [Fam2.1 aminoacylation ribozyme variant],self-aminoacylation,[2],2.55
same,self-aminoacylation,[3],3.76
same,self-aminoacylation,[4],2.63
same,self-aminoacylation,[5],2.38
AUUCAACUAGGUAAUCGGGUG [Fam2.2 aminoacylation ribozyme variant],self-aminoacylation,[2],3.41
same,self-aminoacylation,[3],2.81
same,self-aminoacylation,[4],2.72
same,self-aminoacylation,[5],19
AUUCACCAAGGUCAUAGGGUG [Fam2.2 aminoacylation ribozyme variant],self-aminoacylation,[2],4.37
same,self-aminoacylation,[3],2.2
same,self-aminoacylation,[4],2.48
same,self-aminoacylation,[5],9.85
AUUCACCUACGUCAACGGGUG [Fam2.2 aminoacylation ribozyme variant],self-aminoacylation,[2],3.09
same,self-aminoacylation,[3],2.84
same,self-aminoacylation,[4],2.35
same,self-aminoacylation,[5],9.97
AUUCACCUACGUCAUCAGGUG [Fam2.2 aminoacylation ribozyme variant],self-aminoacylation,[2],2.86
same,self-aminoacylation,[3],2.08
same,self-aminoacylation,[4],2.73
same,self-aminoacylation,[5],9.1
AUUCACCUACGUCAUCGGGGG [Fam2.2 aminoacylation ribozyme variant],self-aminoacylation,[6],2.01
same,self-aminoacylation,[2],2.68
same,self-aminoacylation,[5],6.05
AUUCACCUAGGACAUCGGGUA [Fam2.2 aminoacylation ribozyme variant],self-aminoacylation,[1],2.02
same,self-aminoacylation,[2],2.63
same,self-aminoacylation,[3],2.09
same,self-aminoacylation,[4],2.72
same,self-aminoacylation,[5],7.17
AUUCACCUAGGCCAUCGGCUG [Fam2.2 aminoacylation ribozyme variant],self-aminoacylation,[6],2.59
same,self-aminoacylation,[2],2.03
same,self-aminoacylation,[4],2.27
same,self-aminoacylation,[5],10.5
AUUCACCUAGGUAAUCUGGUG [Fam2.2 aminoacylation ribozyme variant],self-aminoacylation,[2],4.66
same,self-aminoacylation,[3],3.62
same,self-aminoacylation,[4],3.3
same,self-aminoacylation,[5],16.9
AUUCACCUAGGUCAACGGGCG [Fam2.2 aminoacylation ribozyme variant],self-aminoacylation,[1],2.59
same,self-aminoacylation,[2],3.24
same,self-aminoacylation,[4],2.85
same,self-aminoacylation,[5],10.4
AUUCACCUAGGUCAUCGGGAC [Fam2.2 aminoacylation ribozyme variant],self-aminoacylation,[2],3
same,self-aminoacylation,[3],2.55
same,self-aminoacylation,[4],2.56
same,self-aminoacylation,[5],2.12
AUUCACCUAUGUCAUGGGGUG [Fam2.2 aminoacylation ribozyme variant],self-aminoacylation,[6],2.07
same,self-aminoacylation,[2],3.16
same,self-aminoacylation,[3],2.69
same,self-aminoacylation,[4],2.89
same,self-aminoacylation,[5],14.1
AUUCACGUAGGUCAUCGGGUC [Fam2.2 aminoacylation ribozyme variant],self-aminoacylation,[6],2.28
same,self-aminoacylation,[4],2.19
same,self-aminoacylation,[5],9.36
AUUCAGCUACGUCAUCGGGUG [Fam2.2 aminoacylation ribozyme variant],self-aminoacylation,[6],2.02
same,self-aminoacylation,[2],2.71
same,self-aminoacylation,[3],3.07
same,self-aminoacylation,[5],10.1
CAACUUCAAACAAUCGGUCGG [Fam1A.1 aminoacylation ribozyme variant],self-aminoacylation,[2],2.79
same,self-aminoacylation,[3],32.4
same,self-aminoacylation,[4],2.1
same,self-aminoacylation,[5],87.2
CCACAAUUCAAGCAAUCGGGC [Fam1B.1 aminoacylation ribozyme variant],self-aminoacylation,[1],2.22
same,self-aminoacylation,[3],2.04
same,self-aminoacylation,[4],2.14
CCACAAUUCACGCAAUCGGUC [Fam1B.1 aminoacylation ribozyme variant],self-aminoacylation,[6],2.05
CCACACCUCAAGCAUUCGGUC [Fam1B.1 aminoacylation ribozyme variant],self-aminoacylation,[6],2.54
same,self-aminoacylation,[1],2.26
same,self-aminoacylation,[3],2.49
same,self-aminoacylation,[5],2.12
CCACACGUCAAGCAAUCGCUC [Fam1B.1 aminoacylation ribozyme variant],self-aminoacylation,[6],2.54
same,self-aminoacylation,[4],2.64
CCACACGUCAAGCAAUCGGUU [Fam1B.1 aminoacylation ribozyme variant],self-aminoacylation,[6],2.28
CCACACUUCAAGCAAUCGGCC [Fam1B.1 aminoacylation ribozyme variant],self-aminoacylation,[6],2.17
same,self-aminoacylation,[3],4.72
same,self-aminoacylation,[5],4.93
CCACACUUCAAUCAAUCGGCC [Fam1B.1 aminoacylation ribozyme variant],self-aminoacylation,[6],2.11
same,self-aminoacylation,[2],2.16
same,self-aminoacylation,[3],2.62
same,self-aminoacylation,[5],2.71
CCACUCUUCAAGCAAUCGGCC [Fam1B.1 aminoacylation ribozyme variant],self-aminoacylation,[6],2.16
same,self-aminoacylation,[2],2.23
same,self-aminoacylation,[3],4.14
same,self-aminoacylation,[5],4.1
CCAGACUUCGAGCAAUCGGUC [Fam1B.1 aminoacylation ribozyme variant],self-aminoacylation,[6],2.09
CCGCACUUCAAGCAAUCGGUU [Fam1B.1 aminoacylation ribozyme variant],self-aminoacylation,[6],2.45
same,self-aminoacylation,[2],2.4
same,self-aminoacylation,[3],14.4
same,self-aminoacylation,[5],13.9
CCGCACUUCAAGCCAUCGGUC [Fam1B.1 aminoacylation ribozyme variant],self-aminoacylation,[6],2.26
same,self-aminoacylation,[3],2.01
same,self-aminoacylation,[5],2.13
CUACUGCAAACAUUCGGUCUG [Fam1A.1 aminoacylation ribozyme variant],self-aminoacylation,[1],2.01
same,self-aminoacylation,[5],9.39
CUGCUUCAAACAAUCGGUGUG [Fam1A.1 aminoacylation ribozyme variant],self-aminoacylation,[2],3.16
same,self-aminoacylation,[3],49.6
same,self-aminoacylation,[4],2.12
same,self-aminoacylation,[5],124
CUUAGCCUGGUCAUCGAGUGA [Fam2.1 aminoacylation ribozyme variant],self-aminoacylation,[2],3.38
same,self-aminoacylation,[3],2.72
same,self-aminoacylation,[4],2.57
same,self-aminoacylation,[5],2.6
CUUCACCUAGGUCAUCGGCUG [Fam2.2 aminoacylation ribozyme variant],self-aminoacylation,[6],2.27
same,self-aminoacylation,[3],2.25
same,self-aminoacylation,[5],9.39
UUUCACCUAGGUCAUCGGGUC [Fam2.2 aminoacylation ribozyme variant],self-aminoacylation,[6],2.09
same,self-aminoacylation,[5],2.14
